Test results as given in the RNAGym collection of RNA variant scans (doi:10.7554/elife.80360).

B1: CPEB3 Ribozyme (parent)
chain: GGGGGCCACAGCAGAAGCGUUCACGUCGCGGCCCCUGUCAGAUUCUGGUGAAUCUGCGAAUUCUGCUGU

Variants of: B1
Assay: self-cleavage, relative activity (ratio to wild type); higher = more cleavage; co-transcriptional

In order of falling self-cleavage:
1. GGGGGCCACCGCAGAAGCGUUCACGUCGCGGCCCCUGUCAGAUUGUGGUGAAUCUGCGAAUUCUGCUGU [A10C C45G]  1.05
2. GGGGGCCACCGCAGAAGCGUUCACGUCGCGGCCCCUGUCAGAUUCUGGUGAAUUUGCGAAUUCUGCUGU [A10C C54U]  1.02
3. GGGGGCCACCGCAGAAGCGUUCACGUCGCGGCCCCUGUCAGAUUCUGUUGAAUCUGCGAAUUCUGCUGU [A10C G48U]  1.02
4. GGGGGCCACCGCAGAAGCGUUCACGUCGCGGCCCCUGUCAGAUUCUGGUGAAUCUGCGGAUUCUGCUGU [A10C A59G]  1
5. GGGGGCCACCGCAGAAGCGUUCACGUCGCGGCCCCUGUCAGAUUCUCGUGAAUCUGCGAAUUCUGCUGU [A10C G47C]  1
6. GGGGGCCACCGCAGAAGCGUUCACGUCGCGGCCCCUGUCAGAUUCUGGUUAAUCUGCGAAUUCUGCUGU [A10C G50U]  1
7. GGGGGCCACCGCAGAAGCGUUCACGUCGCGGCCCCUGUCAGAUUCUGGUCAAUCUGCGAAUUCUGCUGU [A10C G50C]  0.996
8. GGGGGCCACCGCAGAAGCGUUCACGUCGCGGCCCCUGUCAGAUUCUGGUGAAUGUGCGAAUUCUGCUGU [A10C C54G]  0.993
9. GGGGGCCACCGCAGAAGCGUUCACGUCGCGGCCCCUGUCAGAUUCUGCUGAAUCUGCGAAUUCUGCUGU [A10C G48C]  0.992
10. GGGGGCCACCGCAGAAGCGUUCACGUCGCGGCCCCUGUCAGAUUCUGGUGAAUCUACGAAUUCUGCUGU [A10C G56A]  0.989
11. GGGGGCCACCGCAGAAGCGUUCACGUCGCGGCCCCUGUCAGAUUCUGGUGAUUCUGCGAAUUCUGCUGU [A10C A52U]  0.985
12. GGGGGCCACCGCAGAAGCGUUCACGUCGCGGCUCCUGUCAGAUUCUGGUGAAUCUGCGAAUUCUGCUGU [A10C C33U]  0.98
13. GGGGGCCACCGCAGAAGCGUUCACGUCGCGGCCCCUGUCAGAUUCUGGUGAAUCUGCGAAUUCUGUUGU [A10C C66U]  0.974
14. GGGGGCCACCGCAGAAGCGUUCACGUCGCGGCCCCUGUCAGAUUCUGGUGAAUAUGCGAAUUCUGCUGU [A10C C54A]  0.896
15. GGGGGCCACCGCAGAAGCGUUCACGUCGCGGCCCCUGUCAGAUUCUGGUGAAUCUGCGAAUUCUGGUGU [A10C C66G]  0.892
16. GGGGGCCACCGCAGAAGUGUUCACGUCGCGGCCCCUGUCAGAUUCUGGUGAAUCUGCGAAUUCUGCUGU [A10C C18U]  0.882
17. GGGGGCCACCGCAGAAGCGUUCACGUCGCGGCCCCUGUUAGAUUCUGGUGAAUCUGCGAAUUCUGCUGU [A10C C39U]  0.877
18. GGGGGCCACCGCAGAAGCGUUCACGUCGCGGCCGCUGUCAGAUUCUGGUGAAUCUGCGAAUUCUGCUGU [A10C C34G]  0.868
19. GGGGGCCACCGCAGAAGCGUUCACGUCGCGGCCCCUGUCAGAUUCUGGUGAAUCUGCGAAUUCUGAUGU [A10C C66A]  0.862
20. GGGGGCCACCGCAGAAGCGUUCACGUCGCGGCCCCUGUCAGAUUCUGGUGAAUCUGCGCAUUCUGCUGU [A10C A59C]  0.832
21. GGGGGCCACCGCAGAAGCGUUCACGUCGCGGCCCCUGUCAUAUUCUGGUGAAUCUGCGAAUUCUGCUGU [A10C G41U]  0.826
22. GGGGGCCACCGCAGAAGCGUUCACGUCGCGGCCCCUGUCAAAUUCUGGUGAAUCUGCGAAUUCUGCUGU [A10C G41A]  0.824
23. GGGGGCCACCGCAGAAGCGUUCACGUCGCGGCCCCUGUCACAUUCUGGUGAAUCUGCGAAUUCUGCUGU [A10C G41C]  0.798
24. GGGGGCCACCCCAGAAGCGUUCACGUCGCGGCCCCUGUCAGAUUCUGGUGAAUCUGCGAAUUCUGCUGU [A10C G11C]  0.764
25. GGGGGCCACCGCAGAAGCGUUCACGUCGCGGCCCCUGUCAGAUUCUGGUGAAUCUGCGAAUUGUGCUGU [A10C C63G]  0.629
26. GGGGGCCACCGCAGAAGCGUUCAGGUCGCGGCCCCUGUCAGAUUCUGGUGAAUCUGCGAAUUCUGCUGU [A10C C24G]  0.478
27. GGGGGCCACCGCAGAAUCGUUCACGUCGCGGCCCCUGUCAGAUUCUGGUGAAUCUGCGAAUUCUGCUGU [A10C G17U]  0.464
28. GGGGGCCACCGCAGAAGCUUUCACGUCGCGGCCCCUGUCAGAUUCUGGUGAAUCUGCGAAUUCUGCUGU [A10C G19U]  0.446
29. GGGGGCCACCGCAGAAGCGUUCACGUCGCGGGCCCUGUCAGAUUCUGGUGAAUCUGCGAAUUCUGCUGU [A10C C32G]  0.418
30. GGGGGCCACCGCACAAGCGUUCACGUCGCGGCCCCUGUCAGAUUCUGGUGAAUCUGCGAAUUCUGCUGU [A10C G14C]  0.252
31. GGGGGCCACCGCAGAAGCGUUCACGUCGCGGCCCCUAUCAGAUUCUGGUGAAUCUGCGAAUUCUGCUGU [A10C G37A]  0.242
32. GGGGGCCACCGCAGAAGCGUUCACGUCGCGCCCCCUGUCAGAUUCUGGUGAAUCUGCGAAUUCUGCUGU [A10C G31C]  0.233
33. GGGGGCCACCGCAGAAGCGUUCACGUCGUGGCCCCUGUCAGAUUCUGGUGAAUCUGCGAAUUCUGCUGU [A10C C29U]  0.221
34. GGGGGCCACCGCAGAAGCGUUAACGUCGCGGCCCCUGUCAGAUUCUGGUGAAUCUGCGAAUUCUGCUGU [A10C C22A]  0.161
35. GGGGGCCACCGCAGAAGAGUUCACGUCGCGGCCCCUGUCAGAUUCUGGUGAAUCUGCGAAUUCUGCUGU [A10C C18A]  0.12
36. GGGGGCCACCGCAGAAGCGUUCACGUCCCGGCCCCUGUCAGAUUCUGGUGAAUCUGCGAAUUCUGCUGU [A10C G28C]  0.102
37. GGGGGCCACCGCAGAAGCCUUCACGUCGCGGCCCCUGUCAGAUUCUGGUGAAUCUGCGAAUUCUGCUGU [A10C G19C]  0.097
38. GGGGGCCACCGCAGAAGCGUUCACGUGGCGGCCCCUGUCAGAUUCUGGUGAAUCUGCGAAUUCUGCUGU [A10C C27G]  0.0915
39. GGGGGCCACCGCAGAAGCGUUCACUUCGCGGCCCCUGUCAGAUUCUGGUGAAUCUGCGAAUUCUGCUGU [A10C G25U]  0.0666
